First the molecules themselves.
B1: AHP19485-VHH1 CAR (protein)
chain: EVQLVESGGGLVQPGGSLRLSCAASERIFSIHAMGWYRQAPGKQRELVSSITIGGSTHYADSVKGRFTISRDNSKNTLYLQMNSLRAEDTAVYYCNSMLLAGTVGGSWGQGTLVTVSSGGGSGGGSGGGSGGGSEVQLVESGGGLVQPGGSLRLSCAASERIFSIHAMGWYRQAPGKQRELVSSITIGGSTHYADSVKGRFTISRDNSKNTLYLQMNSLRAEDTAVYYCNSMLLAGTVGGSWGQGTLVTVSSAAADYKDDDDKIEVMYPPPYLDNEKSNGTIIHVKGKHLCPSPLFPGPSKPFWVLVVVGGVLACYSLLVTVAFIIFWVRSKRSRLLHSDYMNMTPRRPGPTRKHYQPYAPPRDFAAYRSRVKFSRSADAPAYQQGQNQLYNELNLGRREEYDVLDKRRGRDPEMGGKPRRKNPQEGLYNELQKDKMAEAYSEIGMKGERRRGKGHDGLYQGLSTATKDTYDALHMQALPPR
B2: AHP19509-VHH1 CAR (protein)
chain: EVQLVESGGGLVQPGGSLRLSCAASGGTFNRYTMGWFRQAPGKEREFVSAISWSGGSTDYADSVKGRFTISRDNSKNTLYLQMNSLRAEDTAVYYCDTDRMPYRPVAAGILSWEANWGQGTLVTVSSGGGSGGGSGGGSGGGSEVQLVESGGGLVQPGGSLRLSCAASGGTFNRYTMGWFRQAPGKEREFVSAISWSGGSTDYADSVKGRFTISRDNSKNTLYLQMNSLRAEDTAVYYCDTDRMPYRPVAAGILSWEANWGQGTLVTVSSAAADYKDDDDKIEVMYPPPYLDNEKSNGTIIHVKGKHLCPSPLFPGPSKPFWVLVVVGGVLACYSLLVTVAFIIFWVRSKRSRLLHSDYMNMTPRRPGPTRKHYQPYAPPRDFAAYRSRVKFSRSADAPAYQQGQNQLYNELNLGRREEYDVLDKRRGRDPEMGGKPRRKNPQEGLYNELQKDKMAEAYSEIGMKGERRRGKGHDGLYQGLSTATKDTYDALHMQALPPR
B3: AHP19484-VHH3 CAR (protein)
chain: QVQLVESGGGLVKPGGSLRLSCAASGSSFHFAFMGWYRQAPGKQRELVADISPGNSTNYADPVKGRFTISRDNAKNSLYLQMNSLRAEDTAVYFCRDLRSWGAWGQGTLVTVSSGGGSGGGSGGGSGGGSQVQLVESGGGLVKPGGSLRLSCAASGSSFHFAFMGWYRQAPGKQRELVADISPGNSTNYADPVKGRFTISRDNAKNSLYLQMNSLRAEDTAVYFCRDLRSWGAWGQGTLVTVSSAAADYKDDDDKIEVMYPPPYLDNEKSNGTIIHVKGKHLCPSPLFPGPSKPFWVLVVVGGVLACYSLLVTVAFIIFWVRSKRSRLLHSDYMNMTPRRPGPTRKHYQPYAPPRDFAAYRSRVKFSRSADAPAYQQGQNQLYNELNLGRREEYDVLDKRRGRDPEMGGKPRRKNPQEGLYNELQKDKMAEAYSEIGMKGERRRGKGHDGLYQGLSTATKDTYDALHMQALPPR
B4: VHH6 CAR (protein)
chain: DVQLQESGGGLVQAGGSLRLSCAVSGYPYSSYCMGWFRQAPGKEREGVAAIDSDGRTRYADSVKGRFTISQDNAKNTLYLQMNRMKPEDTAMYYCAARFGPMGCVDLSTLSFGHWGQGTQVTVSITGGGGSGGGGSGGGGSGGGGSDVQLQESGGGLVQAGGSLRLSCAVSGYPYSSYCMGWFRQAPGKEREGVAAIDSDGRTRYADSVKGRFTISQDNAKNTLYLQMNRMKPEDTAMYYCAARFGPMGCVDLSTLSFGHWGQGTQVTVSITAAADYKDDDDKIEVMYPPPYLDNEKSNGTIIHVKGKHLCPSPLFPGPSKPFWVLVVVGGVLACYSLLVTVAFIIFWVRSKRSRLLHSDYMNMTPRRPGPTRKHYQPYAPPRDFAAYRSRVKFSRSADAPAYQQGQNQLYNELNLGRREEYDVLDKRRGRDPEMGGKPRRKNPQEGLYNELQKDKMAEAYSEIGMKGERRRGKGHDGLYQGLSTATKDTYDALHMQALPPR

These results are taken from patent EP4748858A1.

The target of this assay is PE-Labelled Human CD7 Protein, His Tag (ACROBiosystems, Cat# CD7-HP2E3) (human) (UniProt P09564). Put plainly: flow cytometry of CAR-T cells stained with PE-labelled human CD7 protein, His tag. On the technique in general: A flow cytometer gives signals particle by particle.
PE-Labelled Human CD7 Protein, His Tag (ACROBiosystems, Cat# CD7-HP2E3) (human), sequence (P09564 26-180 limits assumed): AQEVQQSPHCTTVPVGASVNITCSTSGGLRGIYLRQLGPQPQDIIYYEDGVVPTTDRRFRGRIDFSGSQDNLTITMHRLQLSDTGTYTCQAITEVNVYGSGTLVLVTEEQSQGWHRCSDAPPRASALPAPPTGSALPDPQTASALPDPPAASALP
The molecule B1 displayed a CAR expression% (cells stained by PE-labelled human CD7 protein) of 99.7%.

Molecule B2 had a CAR expression% (cells stained by PE-labelled human CD7 protein) of 97.3%.

With B3, the CAR expression% (cells stained by PE-labelled human CD7 protein) amounted to 92.8%.

In turn, B4 came in with a CAR expression% (cells stained by PE-labelled human CD7 protein) of 99.1%.
